Target: the molecule itself
Assay: cryo-EM structure; unsupported MinCD filaments in solution; MinC and MinD each 0.5 mg/mL combined in equal proportion in 20 mM HEPES-Na, 100 mM potassium acetate, 5 mM magnesium acetate, pH 7.0; 1 mM ATP, 15 min at room temperature; helical reconstruction

B1: MinC from Pseudomonas aeruginosa, full-length, His6-tagged (natural protein, UniProt Q9HYZ7 1-263, looked up)
chain: MSQADLLDQDPVFQLKGSMLAVTILELAHNDLARLERQLADKVAQAPNFFRDTPLVMALDKLPEGEGRLDLPALLEVCRRHGLRTLAIRAGREEDIAAAQALDLPVLPPSGARERPLDIKDSAPRKPAEEPSPSAGEARPEPAKAEEKPAEPVSRPTKVVKTPVRGGMQIYAAGGDLIVLAAVSPGAELLADGNIHVYGPMRGRALAGVKGDATARIFCQQLAAELVSIAGNYKVAEDLRRSPQWGKAVHVSLSGDVLNITRL
notes: MinC (septum site-determining protein), Pseudomonas aeruginosa, residues 1-263, cloned into pET-15b; only residues 156-261 (MinC^C) are modelled in the cryo-EM map; the tag was not removed; also called MinC2 (dimer); source: E. coli C41(DE3), purified (HisTrap HP, dialysis); not shown: His6, N-terminal, kept
  binding result: binds
